Experimental findings from the supplement of paper PMC10724198 are described below.

± gives the standard deviation of the averaged measurements.

The series has as its system Saccharomyces cerevisiae. Nature of the series: protein stability index of tFT-peptide fusion (C-terminal peptide) (PSI (0-1 scale)); higher = more stable (slower turnover). Conditions: temperature: 30 C. As to the method:
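MPS profiling in S. cerevisiae of the yeast C-terminome library: the last 12 aa of each annotated ORF are fused to the C-terminus of a sfGFP-mCherry timer, after a GGGS linker. Cells are FACS-sorted into 8 mCherry/sfGFP bins and deep-sequenced. PSI runs from 0 (unstable) to 1 (stable); wild type and das1Δ backgrounds, two technical replicates each.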

Setting [1] is: genetic background: das1 deletion.

As to VKDRPRGKDARL [RML2 C-terminal 12 aa], the protein stability index stood at 0.727 ± 0.058 under setting [1] and 0.805 ± 0.029 (genetic background: wild type).
Regarding VKKCWEKEKDGI [MKK2 C-terminal 12 aa], the protein stability index by setting is: under setting [1], 0.675 ± 0.018; (genetic background: wild type) 0.663 ± 0.026.
For VLDQITGDLKLY [PTH2 C-terminal 12 aa] the same measures were 0.691 ± 0.014 and 0.6285 ± 0.0052.
Turning to “VLLIRSDKKKKV [YIL102C-A C-terminal 12 aa]”, the protein stability index runs as follows: under setting [1], 0.71 ± 0.024; (genetic background: wild type) 0.696 ± 0.035.
Regarding VLSNLAVKALQN [PRM3 C-terminal 12 aa], the protein stability index reads like this: under setting [1], 0.68 ± 0.018; (genetic background: wild type) 0.646 ± 0.023.
For “VMQVQCLFFFIL [YJL156W-A C-terminal 12 aa]” the same measures were 0.556 ± 0.019 and 0.284 ± 0.0037.
Regarding VNNAPARAKVSK [RCR2 C-terminal 12 aa], the protein stability index by setting is: under setting [1], 0.67539 ± 0.00065; (genetic background: wild type) 0.669 ± 0.0023.
In the case of VPELTEKLGKYK [AIM45 C-terminal 12 aa], the protein stability index came out at 0.697 ± 0.019 under setting [1] and 0.676 ± 0.026 (genetic background: wild type).
Regarding VRKNVTWNNLWE [CTF18 C-terminal 12 aa], the protein stability index came out at 0.705 ± 0.013 under setting [1] and 0.682 ± 0.042 (genetic background: wild type).
With VRKVAQWLQQLT [FSH2 C-terminal 12 aa], the protein stability index was determined as 0.6838 ± 0.0012 under setting [1] and 0.5807 ± 0.0037 (genetic background: wild type).
On to VSGFYDHDINGY [APJ1 C-terminal 12 aa], for which the protein stability index amounted to 0.7529 ± 0.0033 under setting [1] and 0.722 ± 0.0078 (genetic background: wild type).
As to VSIKKLGRKLEN [FYV6 C-terminal 12 aa], the protein stability index runs as follows: under setting [1], 0.727 ± 0.023; (genetic background: wild type) 0.6469 ± 0.0013.
With “VSMKAIFSCMYV [YMR272W-B C-terminal 12 aa]”, the protein stability index is, setting by setting: under setting [1], 0.6576 ± 0.0051; (genetic background: wild type) 0.655 ± 0.034.
VTGFKDEVLETV [RPS1A C-terminal 12 aa] returned a protein stability index under setting [1] of 0.7042 ± 0.001 and a protein stability index (genetic background: wild type) of 0.682 ± 0.032.
Take VTGSVPAYCDDD [ART5 C-terminal 12 aa]: the protein stability index came to 0.6825 ± 0.0031 under setting [1] and 0.694 ± 0.011 (genetic background: wild type).
Take VTIFTWSSLLFV [TED1 C-terminal 12 aa]: the protein stability index reads like this: under setting [1], 0.438 ± 0.0058; (genetic background: wild type) 0.454 ± 0.0084.
On to VTNPKGRLALEA [RPL32 C-terminal 12 aa], for which the protein stability index came to 0.6613 ± 0.0025 under setting [1] and 0.686 ± 0.026 (genetic background: wild type).
On to VTQILYTPIESS [SIP2 C-terminal 12 aa], for which the protein stability index was 0.679 ± 0.028 under setting [1] and 0.696 ± 0.03 (genetic background: wild type).
Take VTVYGGRSRMSA [YJL152W C-terminal 12 aa]: the protein stability index runs as follows: under setting [1], 0.6989 ± 0.0061; (genetic background: wild type) 0.702 ± 0.02.
Take VVGFYFQGALSE [VNX1 C-terminal 12 aa]: the protein stability index runs as follows: under setting [1], 0.673 ± 0.025; (genetic background: wild type) 0.708 ± 0.037.
As to VVIIVPIVVHFS [SNC2 C-terminal 12 aa], the protein stability index worked out at 0.351 ± 0.012 under setting [1] and 0.425 ± 0.046 (genetic background: wild type).
Regarding VVKRKKVKTKRI [JJJ1 C-terminal 12 aa], the protein stability index runs as follows: under setting [1], 0.689 ± 0.041; (genetic background: wild type) 0.748 ± 0.14.
Regarding VVNNRIFSGISK [RSM26 C-terminal 12 aa], the protein stability index came to 0.713 ± 0.027 under setting [1] and 0.698 ± 0.018 (genetic background: wild type).
For VWKRARVDLIAS [POL12 C-terminal 12 aa], the protein stability index is, setting by setting: under setting [1], 0.591 ± 0.019; (genetic background: wild type) 0.51 ± 0.029.
Turning to VWLAAALPLAFI [PRM7 C-terminal 12 aa], the protein stability index runs as follows: under setting [1], 0.58 ± 0.0063; (genetic background: wild type) 0.56 ± 0.018.
Turning to VWSLYSRTALET [OAR1 C-terminal 12 aa], the protein stability index runs as follows: under setting [1], 0.6176 ± 0.004; (genetic background: wild type) 0.608 ± 0.012.
Consider VYSIESRVLGHN [OAC1 C-terminal 12 aa], for which the protein stability index under setting [1] turned out to be 0.679 ± 0.015 and the protein stability index (genetic background: wild type) turned out to be 0.676 ± 0.055.
Regarding WAIESVDENWRF [TOP1 C-terminal 12 aa], the protein stability index came to 0.746 ± 0.032 under setting [1] and 0.773 ± 0.04 (genetic background: wild type).
